The source of these data is US20240084027A1 (BEIJING MABWORKS, published 2024).

For assay [1], the target named is T1, human CD40 on HEK293A/human CD40 cells (human, UniProt P25942 21-277).
T1 construct: also called HEK-Blue/CD40 cells
The experiment in a line: FACS on HEK293A/human CD40 cells. As for the experimental part: (§1) The bispecific antibodies as prepared above were tested for their binding capability to cell surface human, monkey and mouse CD40 proteins by FACS, using the HEK293A cells prepared in Example 1 that stably expressed human, monkey or mouse CD40. Briefly, a 96-well plate was seeded with 10⁵ HEK293A cells in 50 μl PBS, and then added with 100 μl serially diluted anti-CD40 antibody 714VH2VL2 and the bispecific antibodies of the disclosure (starting concentration at 40 μg/ml). After incubation at 4° C. for 1 h, the plate was washed by PBST for 3 times. The plate was added with 1:500 diluted APC-goat anti-mouse IgG (Cat #:405308, BioLegen, USA), incubated at 4° for 1 h, washed with PBS for 3 times, and subjected to fluorescence measurement in a FACS machine (BD).
(§2) Following the protocols in Example 4 and Example 5, the bi- or multi-specific antibodies of the disclosure were tested for their binding capability to human PD-L1 and human CD40 proteins by FACS using the HEK293A cells prepared in Example 1 that stably expressed human PD-L1 or human CD40.
Target sequence in this assay (P25942 21-277 limits assumed): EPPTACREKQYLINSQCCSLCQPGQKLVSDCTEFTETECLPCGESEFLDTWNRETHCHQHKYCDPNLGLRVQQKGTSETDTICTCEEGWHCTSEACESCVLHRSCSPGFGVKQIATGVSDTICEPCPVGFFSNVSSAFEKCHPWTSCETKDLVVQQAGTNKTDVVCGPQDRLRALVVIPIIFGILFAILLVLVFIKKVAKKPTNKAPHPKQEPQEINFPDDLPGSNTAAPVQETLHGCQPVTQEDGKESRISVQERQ

The target in assay [2] is T2, human PD-L1 on HEK293A/human PD-L1 cells (human, UniProt Q9NZQ7 19-290). The experiment in a line: FACS blocking assay on HEK293A/human PD-L1 cells; blocked ligand PD-1-Fc. As for the experimental part: (§3) The bispecific antibodies were tested for their blocking activity on PD-1-PD-L1 binding by FACS using the HEK293A cells stably expressing human PD-L1 molecules as prepared in Example 1. Briefly, a 96-well plate was seeded with 10⁵ HEK293A/human PD-L1 cells in 100 μl cell culture medium, and then added with 50 μl serially diluted anti-PD-L1 antibody 56E5VH5VL4 or MBS307-3 molecules. After incubation at 4° C. for 1 h. the plate was washed with PBST for 3 times, added with 100 μl 200 μg/ml PD-1-Fc fusion proteins (Cat #:10377-10211, Sino Biological, CN), incubated at 4° C. for 1 h, washed with PBST for 3 times, and added with 1:500 diluted PE-goat anti-human IgG (Cat #:PAI-86078, Thermofisher, USA). After incubation at 4° C. for 1 h, the plate was washed with PBST for 3 times and measured for fluorescence using a FACS machine (BD).
T2 sequence (Q9NZQ7 19-290 limits assumed): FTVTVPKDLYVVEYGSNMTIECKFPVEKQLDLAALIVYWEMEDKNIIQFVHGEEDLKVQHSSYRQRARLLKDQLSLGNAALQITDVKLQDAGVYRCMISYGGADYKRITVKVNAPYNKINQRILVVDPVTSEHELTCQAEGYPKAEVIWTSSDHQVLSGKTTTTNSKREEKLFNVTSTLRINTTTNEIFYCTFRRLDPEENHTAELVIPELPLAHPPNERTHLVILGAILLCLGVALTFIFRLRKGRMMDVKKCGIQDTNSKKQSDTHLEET
(§4) Following the protocol of Example 7, the bi- or multi-specific antibodies were tested for their capability to block PD-1-PD-L1 binding by FACS, using the HEK293A cells prepared in Example 1 that stably expressed human PD-L1 molecules.

In assay [3] the target is T3, human PD-L1-his protein (human, UniProt Q9NZQ7 19-238).
T3 construct: extracellular domain; also called human PD-L1 (ECD)-his; human PD-L1 protein; not shown: his tag
T3 sequence (Q9NZQ7 19-238): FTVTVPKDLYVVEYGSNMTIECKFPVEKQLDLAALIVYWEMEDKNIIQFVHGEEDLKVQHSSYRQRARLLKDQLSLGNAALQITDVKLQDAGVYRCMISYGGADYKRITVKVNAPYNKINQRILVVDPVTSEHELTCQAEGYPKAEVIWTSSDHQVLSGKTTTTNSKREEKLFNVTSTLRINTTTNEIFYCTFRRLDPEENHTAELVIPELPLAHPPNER
The experiment in a line: SPR (BIAcore 8K), human PD-L1-his coupled to CM5 chip, antibody injected. For orientation: In SPR one partner is held on a chip, and binding of the other changes the refractive index at the surface.

In assay [4] the target is T1, human CD40 on HEK293A/human CD40 cells. The experiment in a line: cell-based or functional assay.
Assay [5] has as its target T2, human PD-L1 on HEK293A/human PD-L1 cells. The experiment in a line: FACS blocking assay on HEK293A/human PD-L1 cells; blocked ligand PD-1-Fc. The method in brief:
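Cells preincubated with serially diluted antibody 1 h at 4° C, washed, then exposed to 200 μg/ml PD-1-Fc for 1 h at 4° C. Bound PD-1-Fc detected with PE-anti-human IgG and read by flow cytometry.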
This is another data set of the same source.

Assay [6] has the same target. The experiment in a line: FACS on HEK293A/human PD-L1 cells. The method in brief: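 HEK293A cells stably expressing the target (10⁵ cells/well) incubated with serially diluted antibodies from 40 μg/ml, 1 h at 4 °C. After PBST washes, bound antibody detected with 1:500 APC-goat anti-mouse IgG for 1 h at 4 °C and read by flow cytometry.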
Assay [7] has as its target T1, human CD40 on HEK293A/human CD40 cells. The experiment in a line: FACS on HEK293A/human CD40 cells. As for the experimental part: as §1, §2
Target sequence in this assay (P25942 21-277 limits assumed): as the sequence (P25942 21-277 limits assumed) above
The source holds these as a separate data set.

Assay [8] concerns the target T2, human PD-L1 on HEK293A/human PD-L1 cells. The experiment in a line: FACS blocking assay on HEK293A/human PD-L1 cells; blocked ligand PD-1-Fc. As for the experimental part: as §3, §4
The source holds these as a separate data set.

The target in another assay is T4, human CD40-his protein (human, UniProt P25942 21-193).
T4 construct: Bought protein; also called human CD40 protein; CD40 molecules; not shown: his tag
The experiment in a line: SPR (BIAcore 8K), human CD40-his coupled to CM5 chip, antibody injected.

The target in assay [9] is T1, human CD40 on HEK293A/human CD40 cells. The experiment in a line: cell-based or functional assay. This is another data set of the same source.
Target sequence in this assay (P25942 21-277 limits assumed): as above
Assay [10] has as its target T3, human PD-L1-his protein. The experiment in a line: SPR on huPDL1 loaded on the chip; 3C2VH6VL5 injected first, anti-PD-L1 sdAb second. As for the experimental part:
To further determine the epitopes the two binding arms of the bi- or multi-specific antibodies bind, a competitive SPR binding assay was performed. Briefly, 1 μg/ml human PD-L1 (ECD)-his proteins (Cat #:10084-H08H, Sino Biological, CN) were coupled to a CM5 biosensor chip (Cat #:BR-1005-30, GE Life Sciences, USA). The un-reacted groups were then blocked with 1 M ethanolamine. The anti-PD-L1 antibodies, 3C2VH6VL5 and 56E5VH5VL4, of 5 μg/ml were respectively injected into the SPR running buffer (IBS-EP buffer, pH7.4, Cat #:BR-1006-69, GE Life Sciences, USA) at 30 μl/min. Then, a second anti-PD-L 1 antibody (i.e., the anti-PD-L1 nanobody) of 5 μg/ml was injected into the SPR running buffer at 30 μL/min. The binding affinity was calculated with the RUs of blank controls subtracted, and the association rate (kₐ) and dissociation rate (kd) were determined using the one-to-one Langmuir binding model.

Read-outs that look alike come from different tables or passages of the source.

B1: MBS307-9 (bispecific antibody, human IgG1, kappa, L234A L235A)
heavy 1: QVQLQESGPGLVKPSDTLSLTCAVSGYSITTNYYWNWIRQPPGKGLEWMGYIKYDGSNNYNPSLKNRITISVDTSKNQFSLKLSSVTAVDTAVYYCARLDYWGQGTLVTVSSASTKGPSVFPLAPSSKSTSGGTAALGCLVKDYFPEPVTVSWNSGALTSGVHTFPAVLQSSGLYSLSSVVTVPSSSLGTQTYICNVNHKPSNTKVDKKVEPKSCDKTHTCPPCPAPEAAGGPSVFLFPPKPKDTLMISRTPEVTCVVVDVSHEDPEVKFNWYVDGVEVHNAKTKPREEQYNSTYRVVSVLTVLHQDWLNGKEYKCKVSNKALPAPIEKTISKAKGQPREPQVYTLPPSREEMTKNQVSLWCLVKGFYPSDIAVEWESNGQPENNYKTTPPVLDSDGSFFLYSKLTVDKSRWQQGNVFSCSVMHEALHNHYTQKSLSLSPGGGGGQVQLQESGPGLVKPSQTLSLTCTVSGGSITSDYWNWIRQHPGNKLEYMGYISYTGSTYYNPSLKSRISITRDTSKNQFSLKLSSVTTADTAVYYCARYRDWDVRAMDYWGQGTTVTVSSGGGGSGGGGSGGGGSGGGGSDIVMTQSPDSLAVSLGEKVTMNCKSSQSLLISGNQKNFLTWYQQKPGQPPKLLIYWASTRESGVPDRFSGSGSGTDFTLTISSLQAEDEAVYYCQNDFGFPFTFGQGTKLTAK
heavy 2: QVQLQESGPGLVKPSDTLSLTCAVSGYSITTNYYWNWIRQPPGKGLEWMGYIKYDGSNNYNPSLKNRITISVDTSKNQFSLKLSSVTAVDTAVYYCARLDYWGQGTLVTVSSASTKGPSVFPLAPSSKSTSGGTAALGCLVKDYFPEPVTVSWNSGALTSGVHTFPAVLQSSGLYSLSSVVTVPSSSLGTQTYICNVNHKPSNTKVDKKVEPKSCDKTHTCPPCPAPEAAGGPSVFLFPPKPKDTLMISRTPEVTCVVVDVSHEDPEVKFNWYVDGVEVHNAKTKPREEQYNSTYRVVSVLTVLHQDWLNGKEYKCKVSNKALPAPIEKTISKAKGQPREPQVYTLPPSREEMTKNQVSLSCAVKGFYPSDIAVEWESNGQPENNYKTTPPVLDSDGSFFLVSKLTVDKSRWQQGNVFSCSVMHEALHNHYTQKSLSLSPGGGGGQVQLVQSGAEVKKPGASVKVSCKASGYTFTDYHVNWVRQAPGQGLEWIGWIFPGSGRTFYTDKFKGRVTMTVDTSTSTVYMELSSLRSEDTAVYYCATDYGTSGYGLVYWGQGTTVTVSSGGGGSGGGGSGGGGSGGGGSDIQMTQSPSSLSASVGDRVTITCKASDRINNWLAWYQQKPGKAPKLLISGATSLETGVPSRFSGSGSGTDFTLTISSLQPEDEATYYCQQYWNIPFTFGQGTKLTAK
light: DVVLTQSPLSLPVTLGQPASISCRSSQSLENSNGNTFLNWFQQRPGQSPRLLIYKVSNRFSGVPDRFSGSGSGTDFTLKISRVEAEDVGVYYCLQVTHVPFTFGQGTKLEIKRTVAAPSVFIFPPSDEQLKSGTASVVCLLNNFYPREAKVQWKVDNALQSGNSQESVTEQDSKDSTYSLSSTLTLSKADYEKHKVYACEVTHQGLSSPVTKSFNRGEC
notes: Asymmetric: knob chain with the 56E5VH5VL4 scFv, hole chain with the 3C2VH6VL5 scFv, linker 4 (short linker); also called MBS307-9-1 + MBS307-9-2
With B1, the figures for the “EC50 (read off the curve)” value in [1], in assay [6] and in assay [7] were about 0.07 µg/mL, about 0.2 µg/mL and about 0.02 µg/mL, respectively. Also, the “IC50 (read off the curve)” value in assay [2] is about 0.2 µg/mL; in assay [5] it was about 0.6 µg/mL; in assay [8], about 0.2 µg/mL. Moreover, the Kd – broadly, the concentration at which binding is half-saturated – was found to be 0.683 nM in the assay with human PD-L1-his protein [3] and 2.9 nM with human CD40-his protein. Also, the “EC50 (read off the curve); HEK-Blue/CD40 reporter, OD630, plate coated with human PD-L1-his” value in [4] is about 0.01 µg/mL; in assay [9], about 0.02 µg/mL.

B2: MBS307-11 (bispecific antibody, human IgG1, kappa, L234A L235A)
heavy 1: QVQLQESGPGLVKPSDTLSLTCAVSGYSITTNYYWNWIRQPPGKGLEWMGYIKYDGSNNYNPSLKNRITISVDTSKNQFSLKLSSVTAVDTAVYYCARLDYWGQGTLVTVSSASTKGPSVFPLAPSSKSTSGGTAALGCLVKDYFPEPVTVSWNSGALTSGVHTFPAVLQSSGLYSLSSVVTVPSSSLGTQTYICNVNHKPSNTKVDKKVEPKSCDKTHTCPPCPAPEAAGGPSVFLFPPKPKDTLMISRTPEVTCVVVDVSHEDPEVKFNWYVDGVEVHNAKTKPREEQYNSTYRVVSVLTVLHQDWLNGKEYKCKVSNKALPAPIEKTISKAKGQPREPQVYTLPPSREEMTKNQVSLWCLVKGFYPSDIAVEWESNGQPENNYKTTPPVLDSDGSFFLYSKLTVDKSRWQQGNVFSCSVMHEALHNHYTQKSLSLSPGGGGGQVQLLESGGGLVQPGGSLRLSCAASGFAFSDYAMTWVRQAPGKGLEWVSTINSGGQSSSYLDSVKGRFTSSRDNSKNTLYLQMNSLRAEDTAVYYCAKGVYMPWKAPKGQGTLVTVSS
heavy 2: B1 heavy 2
light: B1 light
notes: Asymmetric: knob chain with the anti-PD-L1 nanobody, hole chain with the 3C2VH6VL5 scFv; also called MBS307-11-1 + MBS307-11-2
For B2, in [2], the “IC50 (read off the curve)” value was about 0.01 µg/mL. Besides, the results for the Kd with human PD-L1-his protein [3] and with human CD40-his protein were 0.069 nM and 4.37 nM, respectively. The “EC50 (read off the curve); HEK-Blue/CD40 reporter, OD630, plate coated with human PD-L1-his” value in assay [4] was about 0.01 µg/mL.

B3: anti-PD-L1 nanobody (VHH)
VHH: QVQLLESGGGLVQPGGSLRLSCAASGFAFSDYAMTWVRQAPGKGLEWVSTINSGGQSSSYLDSVKGRFTSSRDNSKNTLYLQMNSLRAEDTAVYYCAKGVYMPWKAPKGQGTLVTVSS
notes: also called monospecific anti-PD-L1 nanobody
As for B3, the binding result with human PD-L1-his protein [10] was “binds”.
